In the supplement of paper PMC10126150 one finds switch fluorescence ratio data, which are given here for 78 sequences.

± gives the standard deviation of the averaged measurements.
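Also: ATP exposure 15 min at 22 °C before imaging.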

This series concerns ATP. In words: switch fluorescence ratio, 500 uM ATP over buffer (Cy3 cluster intensity, sum of 5 cycles each) (fold (ratio)); higher = stronger signal-on switching upon ATP binding; sequences stand for … in TCGTCGGCAGCGTCAGATGTGTATAAGAGACAGTTTTTTTTTTTTTTTTTTTTTTTTT…TC. Particulars: aptamer strand: ATP DNA aptamer (quencher-CACCTGGGGGAGTATTGCGGAGGAAGG + anchor), 100 nM annealed; ATP concentration: 500 uM. The method, boiled down:
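Clusters carrying Cy3-labelled switching strands on a modified Illumina MiSeq flow-cell were annealed to 100 nM quencher-labelled ATP aptamer and imaged in selection buffer. They were imaged again after 15 min with 500 uM ATP at 22 °C, over five buffer/ATP cycles with NaOH stripping and re-annealing in between. For each cluster, the fluorescence ratio is the summed Cy3 intensity of the target cycles divided by that of the buffer cycles, averaged per switch-domain sequence. Clusters outside 100-1000 RFU were left out.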
As to TGGGTCCATA, the switch fluorescence ratio stood at 0.95611 ± 0.00081.

For GACCGAGCGT, the switch fluorescence ratio worked out at 1.1 ± 0.06.

GCTAGGTGAC: the switch fluorescence ratio was found to be 1.1 ± 0.037.

Consider GTTAGGGCGG, for which the switch fluorescence ratio is 0.998 ± 0.042.

With ATGACGCGTC, the switch fluorescence ratio came out at 0.982 ± 0.045.

With TGTTTGGGGG, the switch fluorescence ratio was determined as 1.01 ± 0.036.

On to CCATGTGTCG, for which the switch fluorescence ratio came to 1.05 ± 0.064.

With TTTCAATGGT, the switch fluorescence ratio turned out to be 1 ± 0.045.

Take ATGTAGGTTA: the switch fluorescence ratio was determined as 0.987 ± 0.018.

Take ATGAAGGCGG: the switch fluorescence ratio came to 1.05 ± 0.068.

As to AACGTGTGTG, the switch fluorescence ratio was 0.95018 ± 1.6e-05.

In the case of GGGGTTATTC, the switch fluorescence ratio stood at 0.986 ± 0.026.

For CTAATGGAAA, the switch fluorescence ratio came out at 0.998 ± 0.026.

As to TTTCGGCGTT, the switch fluorescence ratio is 1.043 ± 0.0069.

With TCTGGCCTTC, the switch fluorescence ratio came to 1.09 ± 0.1.

ATCGGGTATG: the switch fluorescence ratio was 0.9987 ± 0.0082.

Consider TAGGGGGAAG, for which the switch fluorescence ratio amounted to 0.9792 ± 0.0033.

As to TACCAGAGCA, the switch fluorescence ratio is 1.08 ± 0.022.

With GAAGGGAGCA, the switch fluorescence ratio turned out to be 1.02 ± 0.028.

On to ATCCAGGTAG, for which the switch fluorescence ratio is 1.75 ± 0.076.

Take TAGGGATCCC: the switch fluorescence ratio came out at 1.04 ± 0.028.

Take CGTATTGCGC: the switch fluorescence ratio was 0.971 ± 0.038.

For the sequence GTGATAAGGT, the switch fluorescence ratio is 1 ± 0.021.

As for TCGGAAAATA, the switch fluorescence ratio turned out to be 1.01 ± 0.026.

TAAAGGAGAT: the switch fluorescence ratio turned out to be 1.03 ± 0.032.

As to AGGGACGGGG, the switch fluorescence ratio turned out to be 0.991 ± 0.047.

As for AAATATAAAC, the switch fluorescence ratio turned out to be 1.03 ± 0.087.

On to CTACTAATTA, for which the switch fluorescence ratio was determined as 1.026 ± 0.0031.

Take AAAAGGCGTG: the switch fluorescence ratio was determined as 1.01 ± 0.021.

Take AAAAGGTCGT: the switch fluorescence ratio came to 0.999 ± 0.019.

CCATAAATAG: the switch fluorescence ratio stood at 1.169 ± 0.0077.

Turning to CTGCAAGGGA, the switch fluorescence ratio was found to be 1.06 ± 0.051.

For GTGACAGGGG, the switch fluorescence ratio is 1.05 ± 0.033.

With AAGTCCCGCT, the switch fluorescence ratio turned out to be 1.12 ± 0.17.

Take TCAGGGCTGT: the switch fluorescence ratio was determined as 0.994 ± 0.029.

TAGGCGAGTT: the switch fluorescence ratio came to 0.98 ± 0.0021.

Take GCAAGATGAT: the switch fluorescence ratio was found to be 1.17 ± 0.17.

Turning to GGGACTTTAC, the switch fluorescence ratio came to 1.18 ± 0.038.

CGGCCTTGGT: the switch fluorescence ratio came out at 1.01 ± 0.044.

Regarding TATGGTTATG, the switch fluorescence ratio is 1.008 ± 0.0072.

Turning to CATTTTTGGC, the switch fluorescence ratio is 1.03 ± 0.027.

CAGTTGGGGG: the switch fluorescence ratio came to 1 ± 0.031.

With ATTATCTAAT, the switch fluorescence ratio was found to be 1 ± 0.017.

In the case of TACTAGGGGA, the switch fluorescence ratio was found to be 1.004 ± 0.0034.

For the sequence ACCATGCGTT, the switch fluorescence ratio is 0.992 ± 0.03.

In the case of GCGTAAAAAG, the switch fluorescence ratio is 1.03 ± 0.011.

Regarding TGATTCAGAG, the switch fluorescence ratio is 0.992 ± 0.029.

In the case of GGTACCTTAG, the switch fluorescence ratio is 1.059 ± 0.0087.

Take ACTGGCGTGC: the switch fluorescence ratio is 1.04 ± 0.07.

As for GCTCCGGGCG, the switch fluorescence ratio was 1.13 ± 0.075.

Take TTATTAAAAG: the switch fluorescence ratio worked out at 1.2 ± 0.39.

ATCACTGATT: the switch fluorescence ratio is 1.057 ± 0.0085.

Regarding TCCTGCATGG, the switch fluorescence ratio was 1.22 ± 0.037.

Regarding CCTTTGGGCA, the switch fluorescence ratio came out at 1.05 ± 0.023.

Turning to TTATTCGAGA, the switch fluorescence ratio is 1.02 ± 0.034.

For the sequence GTTGGCGACG, the switch fluorescence ratio is 0.946 ± 0.012.

On to TTAGTTTGCA, for which the switch fluorescence ratio amounted to 1.02 ± 0.022.

Turning to CAGATGATAT, the switch fluorescence ratio was determined as 0.992 ± 0.047.

On to TCTGGCGTTG, for which the switch fluorescence ratio came to 0.983 ± 0.01.

In the case of CTCTAGCTTT, the switch fluorescence ratio came out at 1.09 ± 0.075.

As for GGAGTAGACT, the switch fluorescence ratio was 1.02 ± 0.02.

In the case of GGGCATTGAA, the switch fluorescence ratio came out at 0.9895 ± 0.0022.

Regarding TAAGTTAGGT, the switch fluorescence ratio is 1.03 ± 0.1.

With CAAGAACGGT, the switch fluorescence ratio was 0.969 ± 0.0077.

In the case of GGTGTTGAGA, the switch fluorescence ratio amounted to 1.01 ± 0.04.

In the case of TGGGTCAAAG, the switch fluorescence ratio was determined as 0.9881 ± 0.0088.

As to GCTATGCCTA, the switch fluorescence ratio came out at 0.997 ± 0.023.

CGGTTTGTCT: the switch fluorescence ratio amounted to 0.986 ± 0.018.

Regarding TCAACAGGA, the switch fluorescence ratio was 1.01 ± 0.033.

As to AGTAAAAAGT, the switch fluorescence ratio came to 1.02 ± 0.026.

On to AGGGTCGGTA, for which the switch fluorescence ratio came to 1.02 ± 0.033.

In the case of TAGAGTAGAT, the switch fluorescence ratio was 1.01 ± 0.02.

With GGTTTTGGGT, the switch fluorescence ratio was found to be 0.978 ± 0.026.

Regarding GCCATGGACA, the switch fluorescence ratio was 0.9847 ± 0.00086.

GGGTGATTTT: the switch fluorescence ratio was 0.992 ± 0.049.

Regarding AATCAGAGTG, the switch fluorescence ratio is 1.01 ± 0.03.

Take TGTAAAAGGA: the switch fluorescence ratio came out at 1.01 ± 0.021.

Regarding GCCGTAGCTC, the switch fluorescence ratio came out at 1.2 ± 0.078.
